Paper PMC8052261

Target: DDX3X helicase core WT (human, UniProt O00571 132-607)
Assay: fluorescence polarization

Chain of DDX3X helicase core WT (O00571 132-607): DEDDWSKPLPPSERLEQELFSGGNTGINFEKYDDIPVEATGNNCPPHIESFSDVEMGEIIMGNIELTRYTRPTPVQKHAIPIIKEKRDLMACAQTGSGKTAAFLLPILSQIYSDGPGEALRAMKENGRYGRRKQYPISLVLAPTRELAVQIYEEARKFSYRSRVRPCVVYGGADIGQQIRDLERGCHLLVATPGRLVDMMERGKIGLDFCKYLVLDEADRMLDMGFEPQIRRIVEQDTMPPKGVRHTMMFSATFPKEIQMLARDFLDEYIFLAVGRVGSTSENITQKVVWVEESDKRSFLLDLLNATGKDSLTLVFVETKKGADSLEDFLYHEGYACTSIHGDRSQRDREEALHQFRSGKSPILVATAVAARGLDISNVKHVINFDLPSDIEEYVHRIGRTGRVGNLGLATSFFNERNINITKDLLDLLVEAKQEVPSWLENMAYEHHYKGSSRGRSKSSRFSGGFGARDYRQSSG

UCUCUCUCUCUCUCUCUCUC (ssRNA) [(UC)10]: no binding.
